Experimental findings from the DeepSol protein solubility set are described below.

A short description of the data set: soluble on expression in E. coli; label from the status in PepcDB or PDB records.
For the sequence “MPRLYLGKIPYNARERDVERFLKGYGKINNISMKYGFAFVDFEDSRDAEDACHDLDGKTMEGSSMRLVVEMARGKPRGNDRHGSRSPRRRSRSPRRRSRTPPRRRSRSRDRKRSRRSRSRSSSRSRSPVRESRRRSESRSPSPKRDLKREASRSRSPLPAKDRSRTRSGSPPKNGGDRKRSVSRGRSHSRDGSNRSVSRSPSPGSPKD”, the “soluble on expression in E. coli” value was “not soluble”.

On to “MPRPDNVPVYTMRQLAAFVAVAETGTISGAAERMHLSQSALSAAVTDLEKALKAQLCVRRRARGVQLTPTGEAVLSRARALLQQAGELQSDASGEGGVVAGPIAVGCYPALGPTILPSMLYAFTAEYPRASVEFREDTQNRLRTQLEGGELDVAIVYDLDLSPEWQTVPLMTREPMVVLGAEHPLAGVDGPVRLADLAEHPMVLLDAPPSTNHAMDVCREAGFAPRVAYRTANFETARAFVGRGLGWTLLLQRPRVDVTYEGLPVVVKPIAEPKPASVAVVVAWHQEATLSRVARAFIRFVTA”, for which the “soluble on expression in E. coli” value is recorded as “not soluble”.

Take “MPRPPHLCTCGQLVPHGARCSCQIQRDRERKARFDQKRPSSRERGYTHEWRKARAEFLHQHPTCAFCGAPAGVVDHVIPHKGDMTLFWDRTNWQALCKPCHDRQKQMQERYNHIISLEHHHHHH”: the “soluble on expression in E. coli” value was “not soluble”.

For “MPRPSLRRGEETSGARSLHEIAPPAEKAVRKPLNLLPFRKDTPMTKDSYFHKSRAGVAGAPLFVLLHGTGGDENQFFDFGARLLPQATILSPVGDVSEHGAARFFRRTGEGVYDMVDLERATGKMADFIKANREHYQAGPVIGLGFSNGANILANVLIEQPELFDAAVLMHPLIPFEPKISPAKPTRRVLITAGERDPICPVQLTKALEESLKAQGGTVETVWHPGGHEIRSGEIDAVRGFLAAYGG”, the “soluble on expression in E. coli” value is “soluble”.

Take “MPRPSTCADSGGGMMTTLTARPEAITFDPQQSALIVVDMQNAYATPGGYLDLAGFDVSTTRPVIANIQTAVTAARAAGMLIIWFQNGWDEQYVEAGGPGSPNFHKSNALKTMRKQPQLQGKLLAKGSWDYQLVDELVPQPGDIVLPKPRYSGFFNTPLDSILRSRGIRHLVFTGIATNVCVESTLRDGFFLEYFGVVLEDATHQAGPKFAQKAALFNIETFFGWVSDVETFCDALSPTSFAHIA”: the “soluble on expression in E. coli” value is recorded as “not soluble”.

“MPRTFEEECDFIDRLTDTKFRIKKGFVPNMNVEGRFYVNNSLEQLMFDELKFSCDGQGIGGFLPAVRQIANVASLPGIVGHSIGLPDIHSGYGFSIGNIAAFDVGNPESVISPGGVGFDINCGVRLLRTNLFEENVKPLKEQLTQSLFDHIPVGVGSRGAIPMLASDLVECLEMGMDWTLREGYSWAEDKEHCEEYGRMLQADASKVSLRAKKRGLPQLGTLGAGNHYAEVQVVDEIYDKHAASTMGIDEEGQVVVMLHCGSRGLGHQVATDSLVEMEKAMARDGIVVNDKQLACARINSVEGKNYFSGMAAAANFAWVNRSCITFCVRNAFQKTFGMSADDMDMQVIYDVSHNVAKMEEHMVDGRPRQLCVHRKGATRAFPAHHPLIPVDYQLIGQPVLIGGSMGTCSYVLTGTEQGLVETFGTTCHGAGRALSRAKSRRTITWDSVIDDLKKKEISIRIASPKLIMEEAPESYKNVTDVVDTCDAAGISKKAVKLRPIAVIKG”: the “soluble on expression in E. coli” value is on record as “not soluble”.

Consider “MPRTHGYAPIGKRCHGKCNWHARGRINVIGALIGKCLLTVGLFKNNIDADTFLGWTIHDLLPKLPPASIVVMDNATFRKRQDIQNVITRGGHTLEYLPAYSPDLNPIEHKWAQTKAVRKQQNQTVEQLFKIESFYVTLEHHHHHH”, for which the “soluble on expression in E. coli” value is “soluble”.

For “MPSAHSVKLRPLEREDLRYVHQLDNNASVMRYWFEEPYEAFVELSDLYDKHIHDQSERRFVVECDGEKAGLVELVEINHVHRRAEFQIIISPEYQGKGLATRAAKLAMDYGFTVLNLYKLYLIVDKENEKAIHIYRKLGFSVEGELMHEFFINGQYRNAIRMCIFQHQYLAEHKTPGQTLLKPTAQLEHHHHHH”, the “soluble on expression in E. coli” value was “not soluble”.

With “MPSKQDVLLLDYWDQWAEAYRINGKSINTVYRYKLFRKHLKSRFDGRKLNSIRPIEWQKFINDFAAGKDRKEKTTRKRPRERSKDIVTKMNSYVRGMVKAAINERILFSDFTFGTKTSGVRSSGKVKVLEHHHHHH”, the “soluble on expression in E. coli” value is “soluble”.

With “MPSLFKRSLLPKLRSFPLAAEAFTTLTGAAQFRRTLLEQIAQARRRIYIVALYLQQDEAGQEILDALHAAKAARPELEVVVVVDWLRAQRGLIGAGKQPGNSAWYQQMTRTHASEVPIYGVPVQTRELFGVLHLKGFIIDDCVLYSGASLNNVYLHKFDKYRFDRYHLLHNQALADSMHHLVQHGLVESRAVHRLDLPNLPTTRSLRNDIGDLRSRLKHATYDTTAGGLDKSGLSVSPLLGVGKGNPLNRVICELIAGAQRQLTICTPYFNLPLPVTREINRALERGVKIDIIVGDKTANDFYIPPSEPFKVIAALPYLYEISLRRFAKRHQKVIDNGQLNLHLWRDGDNTYHLKGMWVDERYTLLTGNNLNPRAFRLDLENALLLDDPKGELLQARNAEQAEIYRHTRRIEHFQYLDSLVDYPEAVGKFLRRVSRVRIERLLYRMLLEHHHHHH”, the “soluble on expression in E. coli” value is on record as “not soluble”.

Turning to “MPSLLLLGAGHAHMTVMEAIPRLIERGHSVTVVGPGERHYYSGMGPGMLGGHYSPEDISFPVRQMVTQRGGTFITARATRIDPQRKHVVLDSGQELAYDVCSCNTGSHVPSSIVDGDATDVFPVKPIENLLAGRESIRRRASRGPVRIAVVGGGPAALEVAGNAAAALTQTGAQGNVAMYAGSSFLRRFPARVRELARKELQKARVKLHEGAYASAVHTGEVVLDNGERYEADIIFTALGVVPSPLFAASGLPVGKDGGLAVDAHLRCTEYDDIFGGGDCIWFTPQPLAKVGVYAVRQNPVLLHNLAARLEGGPLLTFSPGGEYLLIFNTGSGRGILHKAGFTFAGRLAFMVKDWIDRRFIRRFQPHLEHHHHHH”, the “soluble on expression in E. coli” value is “not soluble”.

As to “MPSMLERISKNLVKEIGSKDLTPVKYLLSATKLRQFVILRKKKDSRSSFWEQSDYVPVEFSLNDILEPSSSVLETVVTGPFHFSDIMIQKHKADMGVNVGIEVSVSGEASVDHGCSLEFQIVTIPSPNLEDFQKRKLLDPEPSFLKECRRRGDNLYVVTEAVELINNTVLYDSSSVNILGKIALWITYGKGQGQGESLRVKKKALTLQKGMVMAYKRKQLVIKEKAILISDDDEQRTFQDEYEISEMVGYCAARSEGLLPSFHTISPTLFNASSNDMKLKPELFLTQQFLSGHLPKYEQVHILPVGRIEEPFWQNFKHLQEEVFQKIKTLAQLSKDVQDVMFYSILAMLRDRGALQDLMNMLELDSSGHLDGPGGAILKKLQQDSNHAWFNPKDPILYLLEAIMVLSDFQHDLLACSMEKRILLQQQELVRSILEPNFRYPWSIPFTLKPELLAPLQSEGLAITYGLLEECGLRTELDNPRSTWDVEAKMPLSALYGTLSLLQQLAEA”, the “soluble on expression in E. coli” value is recorded as “soluble”.

“MPSNPTRKGRVVVGMSGGVDSSVTAWLLKQQGYEVVGLFMKNWEDDDDSEYCSTRQDLLDAASVADLVGVEFEYVNFAAEYKDRVFAEFLREYSAGRTPNPDVLCNAEIKFKAFLDHAMALGAEHIATGHYARVRTVETPAGPRHQLLKALDDTKDQSYFLHRLNQVQLARTLFPLGELRKTEVRRIAHEIGLHNAAKKDSTGICFIGERPFREFLNRYLPSEPGPILTPEGQRVGTHHGLSFYTLGQRKGLGVGGVKGRQRDDGTAEAWYAARKDLARNVLYVVQGHDHPWLLSAQLQAQDASWIAGEPPAAGAYGAKTRYRQADAACRLDQAGGERFALAFEQAQWAVTPGQSAVLYDGEVCLGGGIIILEHHHHHH”: the “soluble on expression in E. coli” value was “soluble”.

As to “MPSNSTTGAQKCSRKVHSLKFKLEAIEYASKFSKTKAARDLKVSRQCIQDWVAQKTKIESQLKSTNKTAPKRLEGGGRPVQRETVDESVLRWFRDQREKKFRVSRNLIRQKAKEICGEDDFKASTGWLQKFMRRHHLSTRRATTTCQKEPDEFAKKIVDYVLFVEKMRLQNKYTDTHIFAADETAVYLDFSNSLTLNEKGAREVGKTNTLFFYFSHPMMKRCLILFQVPVKTTGHEKMHVTVLLTARADGYKCRPYVLLPRTRPDKEIAARFKNSLQLSWCNRTFFNDEVTEDYLNTIIGPPFFGKRLLAWDAFRCHISDATKRVLKNLKVDTAVVPGGCTKFVQAPDVYWNSPFKASIRRSYEDWMVHGQKSFTKSNNMRPPSMLQYLEWIENAWNDLPKDLILKSFKGCALTIATDGSEDNQVHCFAPNGSIPSGLDLLNSTRIENSLVDLVQDIGIDESQEEGNESDNSIISVG”, the “soluble on expression in E. coli” value is “not soluble”.

Turning to “MPSTVEKMETEEYGKPDPNRLTTKLFAEYDALHEKQQNGMDEKKTMELLEPSEVFEIYSPATMEIISIAKEEGDILSDQSLKFLNEALRYTVVPRGYSPQGVDARTTVKNVATITKDLVDIGKIVFEKFPKYLQFFGPFGSLLKDILDMTKPEKKDPVLEELGNLKSQLESLSQKMVVQFDELKAFMVEKDFYNNYAHKASLLFDYMIDCVATIDTKTKERFEECYNEIKPERYVRDMLIKLESDVTNPLKVSMAGDELTSKATFQKWKDVLNSTLSQFLLLECFAMGFLHPKDESDSKKIIEKITYYTTLVEQWEKHYLNDRPYWPKLKKYVERIQGEGSFDKDEDMATELKKGLDSILTEDNFYLYVFEKNVHYEIHVVKPEMVFVSTNRGKFSVIISRAFEHSEYTCGQYWKKLDNIMYRRIERSIWYALETHMKEFVQWAVASYAKNDFKGCSYFLAFSSRNVAVRWTRKHGAEKGPGFINWDGQLTVFNVTTGTWNMLYMVGE”, the “soluble on expression in E. coli” value is “not soluble”.

“MPSVISTDVLIVGAGVAGLWLNARLRRQGFSTVLVESASLGGGQSLKSQGIIHGGAKYALHGALSGASEAIADMPRRWREALDGKGELDLSGVRLLSEAHYLWSPGTIAGNLTSFFASKAVRGRVDQVKGEQLPPALQNPKFKGKVYRLAELVVDVPSLIKRLAELAEDSLLAGQKIEPLYEADELIGLRVDGRDIHAQRIVLSAGGGTADLLNALGVSQPQMQRRPLHMVLVKGPTLKPLFAHCLGGGPKPRITVTTHPAADGQCVWYLGGDLAEADGVAREPDAQIAVARKELEALLPWVDLSQAQWATLRVDRAEPAQSGLVRPDNAFLDSQRRLMVGWPTKLALAPDFADRVLSHLSKDDIHPTPQAPLVDVPRPPLAIPVWDELLPLEHHHHHH”: the “soluble on expression in E. coli” value is on record as “not soluble”.

As for “MPSYTLTQLASAVRNCLESGFPGRYWVSAETSGVRVGISGHCYLELLDKDTSGSQVTARMKAMIWASDYATLSGRFQRETGETFDSGLHVLVLVSVSYHEQYGLSLRILDIDPSYTMGAMARKRKEIIEELRRQGLYDLNRSLSLPRPTQRIAIVSSGAAAGFEDFIAHLSHSAEHFCFYPVLFQAVMQGAQTEASVLGALERIAYHRDSFDVVVIIRGGGAVSELAAFDSLAIGQACARFPLPILTGIGHDRDETVVDLVAYRSLKTPTAVADFLVNCQREEWKLIDDLRSRAAEGLRMMMMYCHERLIQLSLRTPAILKSSVREEHHRIKSVEDRIRLAAKQRIAFGLQQLQIASRSLPALMKSELKQNTGQLDQVAARLPLLVTANLKNYNRRLETNEQAIRLLHPNATLRRGFAIVLKDDKAIRSHSELHKGDHLVAQFADGSVSAVVDQPQKGKH”, the “soluble on expression in E. coli” value is “not soluble”.

Turning to “MPTDIFSFKQFDIDQTGCAMRVGTDGVLLGAWAGEDAAGSIPQHCLDIGTGTGLIALMLAQRFPQARVQGIEIDPIAAECARANAAASPFSDRIVIASGDILDSSLESLIGNQRFDLIVSNPPFFKSSMHAPDRQRTMARHEETLPLEKLICRASELLSPQGRLALITPRDRLKDLRLYAATYRLVSSRLTEVRTLPHKEPKRLLSEWRPADTAIDRSPFTDTLIIHPATGYYSPEYVRLTEPFYTTSFRILAVG”, the “soluble on expression in E. coli” value is on record as “soluble”.

With “MPTFLECPHCQRLYSKHSLLIHEKNCIESMHKILEQEKLKMQNNQKRGRSKSGRRKKIRPAEMTTTERPRTRSLSRYNHENNGLRICFVCGEQYDDQVIEEHKEKCYGDWSILSKSLSVRFHIHQPKTLNTPSIDGTIDVARENMRAVQSSHNCQIVRCRFCNARISLQHAQSHQCVRFEPTIEFYC”, the “soluble on expression in E. coli” value is given as “soluble”.
